Data: the RNAGym collection of RNA variant scans (doi:10.7554/elife.80360)

B1: CPEB3 Ribozyme (parent)
chain: GGGGGCCACAGCAGAAGCGUUCACGUCGCGGCCCCUGUCAGAUUCUGGUGAAUCUGCGAAUUCUGCUGU

Variants of: B1
Experiment: self-cleavage, relative activity (ratio to wild type); higher = more cleavage; co-transcriptional

Variant | self-cleavage
G47A G65A | 0.936
A52C A59U | 0.68
U49G U55A | 0.968
A52C U64A | 0.875
A51C A60C | 0.477
G50U G65U | 0.809
G50U G65C | 0.73
G48C A60G | 0.948
G48A G58U | 0.987
G48A G58C | 0.98
G50U G58C | 0.942
G48C C66U | 0.998
U49G C54A | 0.907
U49G C54G | 0.925
G50A G56C | 0.675
G50A G56U | 0.905
A51U G58A | 0.941
A51U G58C | 0.975
G50U U55G | 0.8
G50U U55A | 0.882
G50A U69A | 0.982
G47A U55A | 1
G47A A52C | 0.993
G47A A52U | 1.01

Variant | self-cleavage
U49A C66U | 0.998
G48C U62A | 0.994
G48C U62C | 0.946
U49C A60G | 0.955
U49A C57U | 0.379
U49G U69C | 1.06
U49G U69A | 1.01
G48C G56U | 0.962
G47A U61A | 0.941
A51G A59C | 0.747
A51G A59G | 0.963
U49A G58A | 1.01
U46G U49G | 0.972
G48C C57U | 0.32
G48A A60G | 0.916
G48A G56U | 0.972
G47A U67A | 0.969
G48U U62G | 0.927
G48U U62A | 0.922
G50A G68A | 1.03
G48A U69G | 1.07
G48A C57A | 0.329
G48C U53A | 0.968
G50C C57G | 0.314

Variant | self-cleavage
U46G U69G | 1.04
U46G U69A | 1.01
U46G U67C | 0.979
G50A C54G | 0.848
G50A C54U | 0.992
G48C U64A | 0.864
G48C U64G | 0.974
U46G G65U | 0.913
U46G G65A | 0.928
G50C G65U | 0.774
G50A U64G | 0.892
G50A U64C | 0.874
G47A G58U | 0.995
G48U G65A | 0.961
A52C U69A | 0.977
G47C U67A | 1.04
G47C G50A | 0.965
G50A C66A | 0.848
G50A C66G | 0.902
U49G U64C | 0.932
U49G U64G | 0.926
G47C U64C | 0.956
A51C U61C | 0.796
A51C U61G | 0.551

Variant | self-cleavage
U49C A51G | 1.03
A51U A52U | 0.96
G50A U67G | 1.02
G50A U67C | 1.01
A51G G58A | 0.949
U46G G68A | 1.01
G47U U55C | 0.979
G50C U53A | 0.899
G47C G48U | 0.995
G47C G48C | 1.05
G50U G68U | 1.02
U49G G50U | 0.993
U49G G50C | 0.975
U49C G58C | 0.993
G47A C63G | 0.922
G47A C63U | 1.02
G48U U55A | 1
G47A U69C | 1.06
G47A G56C | 0.918
U49A U69A | 0.976
U49A U69C | 1.06
G50C U67A | 0.955
A51C C57G | 0.38
G47U A51G | 0.998

Variant | self-cleavage
G50U G56C | 0.649
U46G G58C | 0.936
U46G G58A | 0.957
A51U C63A | 0.797
G47C C66U | 1
G48C U69A | 1.01
G48C U69G | 1.05
U49A U64A | 0.942
G47C U69A | 0.99
G47C U69G | 1.06
G50A G58C | 1
G48C C63G | 0.829
G48U C57G | 0.398
G48U C57U | 0.388
G48U U53A | 1
G50U A51C | 0.938
A51G C66A | 0.875
A51G C66U | 0.972
A51G C66G | 0.84
A51G C57G | 0.322
G48U U61G | 0.958
U49A U62G | 0.919
G47U U53A | 1.01
U49C U55G | 0.816

Variant | self-cleavage
G50U U62C | 0.866
A52C C57U | 0.398
A52C C57A | 0.414
G48C A51C | 1.02
G48C A51U | 0.976
G47C C54A | 0.949
U49A | 1
U49G | 0.996
U49C | 0.988
G47U U62A | 0.983
A51C G65U | 0.729
G50U C63G | 0.844
G47A A59C | 0.769
G47A A59G | 0.988
U49G G58U | 0.957
U49G G58C | 1
G47C C57G | 0.299
A51C C63G | 0.699
G50C G58A | 0.935
G47C U61C | 0.87
G50A U55G | 0.858
G50A U55C | 0.79
A51G U55A | 0.87
A51G A60C | 0.373

Variant | self-cleavage
G48A U62A | 0.973
A52C U62G | 0.806
A51C U64G | 0.841
A51U G56U | 0.879
A51U G56C | 0.486
A51U G56A | 0.889
U49C C54A | 0.782
A51U U53A | 0.918
G48U C54A | 0.994
G48U C54U | 1.02
G48C G68C | 0.992
G48C G68U | 0.985
G48C C54G | 0.919
G48C C54A | 0.921
U49C C66A | 0.77
G48C A59U | 0.861
U49A U53C | 0.991
G48U A59G | 0.993
U49A A51C | 0.633
U49A A51G | 1.05
G50A A51C | 1.02
G50A G65C | 0.683
G47U A59U | 0.833
